{"source": "patent US20060024387A1", "about": "“Methods and compositions for increasing milk production in animals” (priority 2004, published 2006)", "origin": "cited, not measured here", "molecules": {"B1": {"name": "BST: Hormone injected to increase milk production in lactating cows (protein, UniProt P01246 27-217, looked up)", "Somatotropin": "AFPAMSLSGLFANAVLRAQHLHQLAADTFKEFERTYIPEGQRYSIQNTQVAFCFSETIPAPTGKNEAQQKSDLELLRISLLLIQSWLGPLQFLSRVFTNSLVFGTSDRVYEKLKDLEEGILALMRELEDGTPRAGQILKQTYDKFDTNMRSDDALLKNYGLLSCFRKDLHKTETYLRVMKCRRFGEASCAF"}}, "conditions": "injection"}
{"molecule": "B1", "values": [{"measurement": "effect on milk production", "result": "increase milk production"}]}
